US20030190687A1 (UAB RESEARCH FOUNDATION, published 2003)

Molecular target: T1, human DR5 on the cell surface (Cos-7 cells transfected with full-length human DR5 cDNA); human cells that … (human, UniProt O14763 56-440)
T1 construct: whole, on cells; also called cell surface DR5; full-length DR5
Test: radioisotope labeled TRA-8 on a breast cancer line in vitro; reference soluble TRAIL

B1: anti-human DR5 monoclonal antibody TRA-8 (mouse-mouse hybridoma TRA-8, ATCC PTA-1428) (antibody, mouse IgG1, kappa, V domains shown)
VH: EVMLVESGGGLVKPGGSLKLSCAASGFTFSSYVMSWVRQTPEKRLEWVATISSGGSYTYYPDSVKGRFTISRDNAKNTLYLQMSSLRSEDTAMYYCARRGDSMITTDYWGQGTTLTVSS
VL: DIVMTQSHKFMSTSVGDRVSITCKASQDVGTAVAWYQQKPGQSPKLLIYWASTRHTGVPDRFTGSGSGTDFTLTISNVQSEDLADYFCQQYSSYRTFGGGTKLEIKR
notes: also called monoclonal anti-DR5 antibody (clone: TRA-8); TRA-8 antibody
  fold higher binding activity than soluble TRAIL: 50 fold
